The target in this assay is T1, human FLT3 (human, UniProt P36888 27-993).
T1 construct: On transfected CHO cells, or on the FLT3 positive human AML cell lines EOL-1 / MV4-11 where the row says so; also called hu FLT3; full length human FLT3
Put plainly: FACS, scFv on CHO-human FLT3 pre-incubated with FLT3 ligand (competitor). Background: A flow cytometer gives signals particle by particle.

Residue numbers refer to the chain shown, from its start. Some results are limits rather than exact numbers.

Protocol: The detection was performed using mouse anti-FLAG+PE-conjugated goat anti-mouse and the Fluorescence median detected by FACS (median (+ligand)/median (w/o ligand)*100%)
Afterwards cells were not washed but directly stained with FLT3 binder (scFv's). […] As negative control, cells were incubated with an unspecific scFv instead of FLT3 scFv.
For the evaluation of the data, the fluorescence median was detected by FACS.

B1: FL-60 scFv (scFv)
scFv: QVTLKESGPALVKPTQTLTLTCTFSGFSLSNARMGVSWIRQPPGKALEWLAHIFSNDEKSYSTSLKSRLTISKDTSKRQVVLTMTNMDPVDTATYYCARMVGYGSGWYAYFDYWGQGTLVTVSSGGGGSGGGGSGGGGSDIVMTQTPLSLSVTPGQPASISCRSSQSLLHSNGYNYLYWYLQKPGQPPQLLIYEVSNRFSGVPDRFSGSGSGTDFTLKISRVEAEDVGVYYCMQALQTPLTFGGGTKVEIK
notes: periplasmic prep
For the molecule B1, the “median [+ligand]/median [w/o ligand]*100” value is not below 75%.

B2: FL-19 scFv (scFv)
scFv: QVTLKESGPTLVKPTETLTLTCTVSGFSLSYARMGVSWIRQPPGKALEWLAQIFSNDEKSYSTSLKSRLTISKDTSKSQVVLTMTDMDPEDTATYYCARIVGYGTGWYGYFDYWGQGTQVTVSSGGGGSGGGGSGGGGSDIQMTQSPSSLSASVGDRVTITCRASQDIGDDLGWYQQKPGKAPKRLIYAASTLQSGVPFRFSGSGSGTDFTLTISSLQPEDFATYYCLQHNSYPLTFGGGTKVEIK
notes: periplasmic prep
On to B2, for which the “median [+ligand]/median [w/o ligand]*100” value is not below 75%.

B3: FL-8 scFv (scFv)
scFv: QVTLKESGPALVKPTETLTLTCTVSGFSLSYARMGVSWIRQPPGKALEWLAQIFSNDEKSYSTSLKSRLTISKGTSNSQVVLTMTNMDPEDTATYYCARIVGYGTGWYGFFDYWGQGILVTVSSGGGGSGGGGSGGGGSDIQMTQSPSSLSASVGDRVTITCRASQGIRNDLGWYQQKPGKAPKRLIYAASSLQSGVPSRFSGSGSGTEFTLTISSLQPEDFATYYCLQHNSYPLTFGGGTKVDIK
notes: periplasmic prep
Turning to B3, the “median [+ligand]/median [w/o ligand]*100” value is not below 75%.

B4: FL-31 scFv (scFv)
scFv: B3 scFv with E16Q, V24F, Y31N, Q52H, G74D, N77K, N86D, A164T, D244E
notes: periplasmic prep
B4: the “median [+ligand]/median [w/o ligand]*100” value is not below 75%.

B5: FL-7 scFv (scFv)
scFv: QVTLKESGPTLVKPTETLTLTCTVSGFSLNNARMGVSWIRQPPGKALEWLAHIFSNDEKSYSTSLKNRLTISKDSSKTQVVLTMTNVDPVDTATYYCARIVGYGTGWFGYFDYWGQGTQVTVSSGGGGSGGGGSGGGGSDIQMTQSPSSLSASVGDRVTITCRASQDIRTDLAWYQQKPGKAPKRLIYAASSLQSGVPSRFSGSGSGTEFTLTISSLQPEDFATYYCLQHNRYPLTFGGGTKVDIK
notes: periplasmic prep
As to B5, the “median [+ligand]/median [w/o ligand]*100” value was not below 75%.

B6: FL-3 scFv (scFv)
scFv: QVTLKESGPALVKPTETLTLTCTVSGFSLSNARMAVSWIRQPPGKALEWLAHIFSNGEKSYSTSLKSRLTISKDTSKTQVVLTMTNTDPVDTATYFCARIVGYSDWLLPFDHWGQGIMVTVSSGGGGSGGGGSGGGGSDIQMTQSPSSLSASVGDRVTITCRASQNINRFLNWYQQKPGKAPKLLIYAASSLQSGVPSRFSGSGSGTDFTLTISSLQPEDFATYYCLQHNSYPWTFGQGTKVDIK
notes: periplasmic prep
In the case of B6, the “median [+ligand]/median [w/o ligand]*100” value is not below 75%.

B7: FL-35 scFv (scFv)
scFv: QVTLKESGPALVKPTETLTLTCTVSGFSLNNARMGVSWIRQPPGKALEWLAHIFSNDEKSYSTSLKNRLTISKDSSKTQVVLTMTNVDPVDTATYYCARIVGYGTGWYGFFDYWGQGTQVTVSSGGGGSGGGGSGGGGSDIQMTQSPSSLSASVGDRVTITCRASQDIRDDLVWYQQKPGKAPKRLIYGTSTLQSGVPSRFSGSGSGTEFTLTISSLQPEDFATYYCLQHHSYPLTFGGGTKLEIK
notes: periplasmic prep
Regarding B7, the “median [+ligand]/median [w/o ligand]*100” value was not below 75%.

B8: FL-18 scFv (scFv)
scFv: QVTLKESGPVLVKPTQTLTLTCTFSGFSLSNARMGVSWIRQPPGKALEWLAHIFSNDEKSFSTSLKNRLTISKDTSKSQVVLTMTNMDPVDTATYYCARMVGYGSGWYAYFDYWGQGTQVTVSSGGGGSGGGGSGGGGSDIQMTQSPSSLSASVGDRVTITCRASQSISSYLNWYQQKPGKAPKLLIYAASSLQSGVPSRFSGSGSGTDFTLTISSLQPEDFATYYCLQHNSYPLTFGGGTKVEIK
notes: periplasmic prep
As to B8, the “median [+ligand]/median [w/o ligand]*100” value was not below 75%.

B9: FL-41 scFv (scFv)
scFv: B8 scFv with A46C, G239C
notes: periplasmic prep
As for B9, the “median [+ligand]/median [w/o ligand]*100” value was not below 75%.

B10: FL-1 scFv (scFv)
scFv: QVTLKESGPVLVKPTETLTLTCTVSGFSLINARMGVSWIRQPPGKALEWLAHIFSNAEKSYRTSLKSRLTISKDTSKSQVVLTMTNMDPVDTATYYCARIPGYGGNGDYHYYGMDVWGQGTTVTVSSGGGGSGGGGSGGGGSDIQMTQSPSSLSASLGDRVTITCRASQGIRNDLGWYQQKPGKAPKRLIYASSTLQSGVPSRFSGSGSGTEFTLTISSLQPEDFATYYCLQHNNFPWTFGQGTKVEIK
notes: periplasmic prep
In the case of B10, the “median [+ligand]/median [w/o ligand]*100” value is not below 75%.

B11: FL-30 scFv (scFv)
scFv: QVTLKESGPVLVKPTQTLTLTCTFSGFSLSNARMGVSWIRQPPGKALEWLALIYWNDDKRYSPSLKSRLTITKDTSKNQVVLTMTNMDPVDTATYYCARMVGYGSGWYAYFDYWGQGTLVTVSSGGGGSGGGGSGGGGSDIQMTQSPSSLSASVGDRVTITCRASQGIRNDLGWYQQKPGKAPKRLIYAASSLQSGVPSRFSGSGSGTEFTLTISSLQPEDFATYYCLQHNSYPLTFGGGTKVEIK
notes: periplasmic prep
On to B11, for which the “median [+ligand]/median [w/o ligand]*100” value was not below 75%.

B12: FL-17 scFv (scFv)
scFv: QVTLKESGPTLVKPTETLTLTCTVSGFSLSNARMGVSWIRQPPGKALEWLANIFSNDEKSYSTSLKSRLTISKGTSKSQVVLTMTNVNPVDTGTYYCARIVGYGSGWYGYFDYWGQGTLVTVSSGGGGSGGGGSGGGGSDIQMTQSPSSLSASVGDRVTITCRASQDIRNDLGWYQQKPGKAPKRLIYATSIRQSGVPSRFTGSGSGTEFTLTISGLQPEDFATYFCLQHNSFPLTFGGGTKVEIK
notes: periplasmic prep
As for B12, the “median [+ligand]/median [w/o ligand]*100” value was not below 75%.

B13: FL-40 scFv (scFv)
scFv: B12 scFv with A46C, G239C
notes: periplasmic prep
As for B13, the “median [+ligand]/median [w/o ligand]*100” value is not below 75%.

B14: FL-2 scFv (scFv)
scFv: QVTLKESGPVLVKPTETLTLTCTVSGFSLRNARMGVSWIRQPPGKALEWLAHIFSNDEKTYSTSLKSRLTISRDTSKGQVVLTMTKMDPVDTATYYCARIPYYGSGSHNYGMDVWGQGTTVTVSSGGGGSGGGGSGGGGSDIQMTQSPSSLSASVGDRVTITCRASQDIRNDFGWYQQKPGKAPQRLLYAASTLQSGVPSRFSGSGSGTEFTLTISSLQPEDFATYYCLQYNTYPWTFGQGTKVEIK
notes: periplasmic prep
With B14, the “median [+ligand]/median [w/o ligand]*100” value is not below 75%.

B15: FL-57 scFv (scFv)
scFv: QVTLKESGPTLVKPTETLTLTCTFSGFSLRYARMGVSWIRQPPGKALEWLAHISSNDEKSFSTALESRLTISTDTSKSQMVLTMTNVDPVDTATYYCARMPGDSNTWRGFFDYWGQGTLVTVSSGGGGSGGGGSGGGGSEIVMTQSPGTLSLSPGERATLSCRTSQTVTNSYIAWYQQRPGQAPRLLIYGTSTRATGIPDRFSGSGSGTDFTLTISRLEPEDFAVYYCQKYGSSPLTFGGGTKLEIK
notes: periplasmic prep
As to B15, the “median [+ligand]/median [w/o ligand]*100” value was not below 75%.
